Target: canine LILRB3 (ENSCAFG00000028453) on normal MDCK cells (dog)
Experiment: cell-based or functional assay

Chain of canine LILRB3 (ENSCAFG00000028453) on normal MDCK cells (dog) (chain, as listed by the source limits assumed, form in doubt): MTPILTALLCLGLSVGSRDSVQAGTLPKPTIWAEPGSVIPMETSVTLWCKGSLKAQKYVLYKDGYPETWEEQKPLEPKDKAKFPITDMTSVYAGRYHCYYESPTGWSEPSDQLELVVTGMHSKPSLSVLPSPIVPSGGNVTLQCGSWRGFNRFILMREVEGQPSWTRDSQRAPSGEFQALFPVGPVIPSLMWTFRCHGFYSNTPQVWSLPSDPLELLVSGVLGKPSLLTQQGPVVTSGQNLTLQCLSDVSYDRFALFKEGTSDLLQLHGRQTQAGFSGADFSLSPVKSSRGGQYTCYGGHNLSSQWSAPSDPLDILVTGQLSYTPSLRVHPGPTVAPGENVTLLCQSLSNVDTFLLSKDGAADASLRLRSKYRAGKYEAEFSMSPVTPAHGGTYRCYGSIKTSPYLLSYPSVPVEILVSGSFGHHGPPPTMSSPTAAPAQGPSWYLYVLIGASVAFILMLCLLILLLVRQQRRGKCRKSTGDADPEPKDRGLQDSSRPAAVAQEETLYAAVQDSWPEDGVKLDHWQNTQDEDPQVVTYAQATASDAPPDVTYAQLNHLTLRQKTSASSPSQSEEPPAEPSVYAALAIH

- residual rate of SCRB^KD (Scribble knockdown) MDCK cells in mixed culture with normal MDCK cells, 24 hr: 20%
Substance: recombinant protein DLA88-α3 (from UniProt P18466 207-299) (ligand)

Reference: patent US20220233638A1
